Assay results taken from US20210206838A1.
Substitutions are numbered along the chain they refer to.

B1: MS-40 (antibody, V domains shown)
VH: QMQLQESGPGLVKPSETLSLTCSVSGASISDSYWSWIRRSPGKGLEWIGYVHKSGDTNYSPSLKSRVNLSLDTSKNQVSLSLVAATAADSGVYYCARTLHGRRIYGIVAFNEWFTYFYMDVWGNGTQVTVSS
VL: SDISVAPGQTARISCGEKSLGSRAVQWYQQRAGQAPSLIIYNNQDRPSGIPERFSGSPDSPFGTTATLTITSVEAGDEADYYCHIWDSRVPTKWVFGGGTTLTVLG
B2: MS-48 (antibody, V domains shown)
VH: B1 VH with V92K
VL: B1 VL with Q9E

Legend:
Test in all cases: cell-based or functional assay
[1] = biological target: HIV pseudovirus 0260.v5.c36 (envelope glycoprotein) (HIV)
[2] = biological target: HIV pseudovirus CNE52 (envelope glycoprotein) (HIV)
[3] = biological target: HIV pseudovirus Ce1176_A3 (envelope glycoprotein) (HIV)
[4] = biological target: HIV pseudovirus Du172.17 (envelope glycoprotein) (HIV)
[5] = biological target: HIV pseudovirus RHPA4259.7 (envelope glycoprotein) (HIV)
[6] = biological target: HIV pseudovirus SC05.8C11.2344 (envelope glycoprotein) (HIV)

Binder | neutralization IC50 [1] [µg/mL] | neutralization IC80 [1] [µg/mL] | neutralization IC50 [2] [µg/mL] | neutralization IC80 [2] [µg/mL] | neutralization IC50 [3] [µg/mL] | neutralization IC80 [3] [µg/mL] | neutralization IC50 [4] [µg/mL] | neutralization IC80 [4] [µg/mL] | neutralization IC50 [5] [µg/mL] | neutralization IC80 [5] [µg/mL] | neutralization IC50 [6] [µg/mL] | neutralization IC80 [6] [µg/mL]
B1 | 0.043 | 0.149 | 2.22 | 22.2 | 0.009 | 0.033 | 0.046 | 0.36 | 0.006 | 0.025 | 0.014 | 0.05
B2 | 0.021 | 0.108 | 2.81 | 21.9 | 0.009 | 0.036 | 0.02 | 0.165 | 0.013 | 0.034 | 0.016 | 0.063
